Results: paper PMC6698835 (Antibodies, 2018)

Experiments:
Details in all cases: both partners purified
Shiga toxin 1 (Stx1) [1] = target: T1, Shiga toxin 1 (Stx1) (Escherichia coli (STEC), strain not …, UniProt P08026;P69179); assay: SPR; […]; HBS-EP pH 7.4; 25 °C; 30 uL/min; […]; Langmuir 1:1 model; BIAcore T200; in duplicate
T1 construct: source: bought: Tufts University School of Medicine; copies: 1 + 5

Stx2 toxin = Stx2 toxin (Escherichia coli (STEC), strain not …, UniProt P09385;P09386); assay: ELISA; […]; room temperature; in triplicate
Chain of Stx2 toxin (P09386 whole entry, looked up, chain 1 of 2): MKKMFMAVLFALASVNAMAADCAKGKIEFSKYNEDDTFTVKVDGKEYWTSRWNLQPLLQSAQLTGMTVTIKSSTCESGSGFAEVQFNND
Chain of Stx2 toxin (P09385 whole entry, looked up, chain 2 of 2): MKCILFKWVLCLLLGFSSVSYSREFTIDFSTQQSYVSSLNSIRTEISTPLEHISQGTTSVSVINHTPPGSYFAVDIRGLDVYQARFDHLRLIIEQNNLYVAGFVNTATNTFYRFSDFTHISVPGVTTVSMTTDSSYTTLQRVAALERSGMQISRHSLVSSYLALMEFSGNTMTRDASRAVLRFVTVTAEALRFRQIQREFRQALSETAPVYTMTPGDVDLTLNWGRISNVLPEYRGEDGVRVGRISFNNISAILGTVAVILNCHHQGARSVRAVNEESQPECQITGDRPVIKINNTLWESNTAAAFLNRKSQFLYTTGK

Shiga toxin 1 (Stx1) [2] = target: T1, Shiga toxin 1 (Stx1); assay: ELISA; […]; room temperature; in triplicate

T1 sequence (P69179 whole entry, looked up, chain 1 of 2): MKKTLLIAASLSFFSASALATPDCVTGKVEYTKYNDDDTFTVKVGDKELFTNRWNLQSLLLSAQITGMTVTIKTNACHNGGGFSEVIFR
T1 sequence (P08026 whole entry, looked up, chain 2 of 2): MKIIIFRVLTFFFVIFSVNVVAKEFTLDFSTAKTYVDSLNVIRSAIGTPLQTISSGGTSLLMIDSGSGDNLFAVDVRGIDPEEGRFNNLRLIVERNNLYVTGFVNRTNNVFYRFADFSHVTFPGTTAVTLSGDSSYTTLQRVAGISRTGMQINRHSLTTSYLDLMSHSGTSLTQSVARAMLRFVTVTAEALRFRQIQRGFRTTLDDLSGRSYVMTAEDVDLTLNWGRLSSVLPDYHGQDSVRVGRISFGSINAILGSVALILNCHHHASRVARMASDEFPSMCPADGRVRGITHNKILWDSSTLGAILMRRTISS

B1: scFvStx1 (scFv, V domains shown)
VH: EVQLQQSGPELVKPGTSVKMSCKASGYTFTDYFIHWVKQSHGKSLEWIGYIYPKNDGNDYNQKFKGKATLTVDKSSSTGYMELRSLTSEDSAVYYCARSRGYYGALDYWGQGTSVTVSR
VL: DLQLTQSPATLSVNPGDSVSLSCRASQSIRNDLHWYQQKSHESPRLLIKSVSQSISGIPSRFSGSGSGTDFTLSINSVETEDFGMYFCQQSYSWPLTFGAGTK
notes: also called scFvStx1(II); new scFvStx1; source: E. coli BL21 (DE3) pLysS, periplasmic expression, purified (IMAC)
Shiga toxin 1 (Stx1) [1]
  Kd: 226 nM
Stx2 toxin
  binding result: binds
Shiga toxin 1 (Stx1) [2]
  EC50: 600 nM
